This note sets out measurements from US6406886.

Holding throughout (test): cell-based or functional assay
One test has as its target Rac1.
In a further test the target is Ran.
Test [1] deals with human Ha-Ras (1st to 189th residues) (human) (UniProt P01112).
The target of test [2] is human Rap1A (Glu63) (1st to 184th residues) (human) (UniProt P62834).
Test [3] concerns the target human RhoA (1st to 193 residues) GST fusion protein (human) (UniProt P61586).
For test [4], the target named is yeast Rsr1 (1st to 272nd residues) (yeast) (UniProt P13856).
Chain of yeast Rsr1 (1st to 272nd residues) (yeast) (P13856 whole entry, form in doubt): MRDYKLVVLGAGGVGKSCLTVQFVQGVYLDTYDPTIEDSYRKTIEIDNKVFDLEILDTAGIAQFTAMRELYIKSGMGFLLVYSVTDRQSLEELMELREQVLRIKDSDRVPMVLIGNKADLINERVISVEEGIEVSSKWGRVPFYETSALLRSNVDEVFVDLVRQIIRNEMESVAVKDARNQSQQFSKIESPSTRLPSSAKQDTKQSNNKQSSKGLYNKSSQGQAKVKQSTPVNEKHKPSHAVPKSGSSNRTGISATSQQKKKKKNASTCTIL

Chain of human RhoA (1st to 193 residues) GST fusion protein (human) (P61586 whole entry, form in doubt, the tested form may be a part): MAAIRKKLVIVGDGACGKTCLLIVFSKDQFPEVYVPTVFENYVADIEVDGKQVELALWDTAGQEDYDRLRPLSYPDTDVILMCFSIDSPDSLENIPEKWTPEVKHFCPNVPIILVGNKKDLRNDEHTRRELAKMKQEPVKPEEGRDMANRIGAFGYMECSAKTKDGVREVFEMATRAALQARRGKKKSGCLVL
Chain of human Ha-Ras (1st to 189th residues) (human) (P01112 whole entry, form in doubt): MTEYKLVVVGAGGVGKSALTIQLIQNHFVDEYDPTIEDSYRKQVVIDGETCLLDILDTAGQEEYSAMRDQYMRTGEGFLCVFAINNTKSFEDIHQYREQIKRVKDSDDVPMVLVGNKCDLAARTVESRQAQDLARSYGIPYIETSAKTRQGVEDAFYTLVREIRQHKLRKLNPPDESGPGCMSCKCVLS
Chain of human Rap1A (Glu63) (1st to 184th residues) (human) (P62834 whole entry, the tested form may be a part): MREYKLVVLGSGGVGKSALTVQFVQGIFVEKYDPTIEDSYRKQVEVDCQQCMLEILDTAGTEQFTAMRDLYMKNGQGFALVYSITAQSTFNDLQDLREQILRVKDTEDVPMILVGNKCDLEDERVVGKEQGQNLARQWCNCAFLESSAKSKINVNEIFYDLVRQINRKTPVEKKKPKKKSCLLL

B1: Span-N/GST fusion protein (protein, not shown: a dimerising Fc or GST)
chain: MYNNQEAGAAFMQFLTLLGDVVRLKGFESYRAQLDTKTDSTGTHSLYTTYQDHEIMFHVSTMLPYTPNNQQQLLRKRHIGNDIVTIVFQEPGSKPFCPTTIRSHFQHVFLVVRAHAPCTPHTSYRVAVSRTQDTPAFGPALPEGGGPFAANADFRAFLLAKALNGEQAAGHARQFHAMATRTRQQYLQDL
For B1, the Stimulation (times) of GTPase activity was determined as 0 times with Rac1; 0.3 times in test [1]; 6 times in test [2]; 0.6 times in test [3]; 16 times in test [4]. In the test with Ran, this molecule came in with an EC16 (µg/ml), activation of Ran GTPase of 25 µg/mL.
